The assay addresses T1, LRP6 G171V (human, UniProt O75197 32-1384, limits assumed).
T1 construct: The parent protein is printed inconsistently (LRP6 in the legend, LRP5 in the text); also called Human HBM G171V mutation; LRP5, G171V
T1 sequence (looked up): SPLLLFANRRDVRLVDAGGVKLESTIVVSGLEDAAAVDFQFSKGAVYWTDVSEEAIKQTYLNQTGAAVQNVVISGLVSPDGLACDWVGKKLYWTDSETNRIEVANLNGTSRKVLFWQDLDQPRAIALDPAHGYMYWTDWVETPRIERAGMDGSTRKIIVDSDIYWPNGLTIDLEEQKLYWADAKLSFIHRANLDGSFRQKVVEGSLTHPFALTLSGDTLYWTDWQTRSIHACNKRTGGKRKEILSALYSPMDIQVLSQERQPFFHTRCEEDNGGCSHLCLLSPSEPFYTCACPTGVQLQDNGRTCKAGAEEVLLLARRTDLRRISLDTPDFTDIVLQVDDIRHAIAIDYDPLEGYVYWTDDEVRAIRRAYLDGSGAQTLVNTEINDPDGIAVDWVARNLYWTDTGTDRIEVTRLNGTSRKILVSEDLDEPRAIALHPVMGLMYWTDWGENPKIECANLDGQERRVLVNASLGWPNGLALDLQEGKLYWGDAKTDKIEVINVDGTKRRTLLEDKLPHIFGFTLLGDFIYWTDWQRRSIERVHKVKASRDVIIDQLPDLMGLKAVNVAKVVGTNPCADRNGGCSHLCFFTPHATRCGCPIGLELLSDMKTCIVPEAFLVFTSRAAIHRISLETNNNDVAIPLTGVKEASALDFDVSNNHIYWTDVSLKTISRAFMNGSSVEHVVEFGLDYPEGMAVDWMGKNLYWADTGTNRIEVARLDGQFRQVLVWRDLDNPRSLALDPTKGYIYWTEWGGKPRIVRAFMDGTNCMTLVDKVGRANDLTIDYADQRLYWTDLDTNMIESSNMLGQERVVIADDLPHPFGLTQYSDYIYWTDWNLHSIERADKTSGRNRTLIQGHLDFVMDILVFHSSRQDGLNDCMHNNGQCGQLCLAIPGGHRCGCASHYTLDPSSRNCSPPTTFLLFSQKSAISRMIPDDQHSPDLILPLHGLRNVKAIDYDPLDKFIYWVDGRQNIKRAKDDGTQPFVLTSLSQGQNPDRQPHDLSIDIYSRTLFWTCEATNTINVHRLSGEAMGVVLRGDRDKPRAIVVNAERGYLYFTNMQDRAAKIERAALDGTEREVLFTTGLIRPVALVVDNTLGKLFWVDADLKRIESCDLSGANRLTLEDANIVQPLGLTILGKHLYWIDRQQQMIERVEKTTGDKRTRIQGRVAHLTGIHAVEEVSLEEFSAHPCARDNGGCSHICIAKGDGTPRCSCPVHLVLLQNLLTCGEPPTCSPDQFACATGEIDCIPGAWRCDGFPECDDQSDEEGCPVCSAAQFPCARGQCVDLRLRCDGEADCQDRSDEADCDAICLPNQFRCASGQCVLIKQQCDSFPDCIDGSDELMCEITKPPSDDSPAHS
The assay can be described thus: immunoprecipitation, anti-Flag M2 affinity gel (FIG. 2H). On the procedure: A […] dish of 293 cells was transfected with 10 ug of LRP5, LRP6, SOST or Wise, using Fugene 6 (Roche). pCS2+LRP5 contains the extracellular portion of the human sequence between EcoRI-Xbal. pCS2+SOST contain the whole reading frame and has been modified at the 3′ end to have a kozak sequence and Flag tag, Wise-Flag, and LRP6-IgG-FC are described in Itasaki et al. (2003). pCS2+ with an Ig-FC insert is the vector control. The supernatants were collected on day 1, day 2, and day 3. The supernatant was concentrated through an appropriate molecular weight Amicon ultra (Millipore) spin column. A protein concentration was taken on the concentrated supernatants, and 50 ug of each sample was used in each IP. Anti-Flag M2 affinity gel (Sigma) was used for the Wise and SOSTIPs.

B1: SOST-Flag (ligand, mouse, UniProt Q99P68 24-211, looked up)
chain: QGWQAFRNDATEVIPGLGEYPEPPPENNQTMNRAENGGRPPHHPYDAKDVSEYSCRELHYTRFLTDGPCRSAKPVTELVCSGQCGPARLLPNAIGRVKWWRPNGPDFRCIPDRYRAQRVQLLCPGGAAPRSRKVRLVASCKCKRLTRFHNQSELKDFGPETARPQKGRKPRPGARGAKANQAELENAY
notes: mature; This entry was not used because neither its species nor its tie to the assay construct is stated; also called pCS2+SOST; not shown: Flag tag at the 3' end of the reading frame
For B1, the binding result was “no binding”.

(Values after patent publication US20160289316A1 (STOWERS INSTITUTE FOR MEDICAL RESEARCH, published 2016).)
